Assay results as given in patent US20220073643A1.

Target: Claudin18.2-His protein (human)
Test: indirect ELISA on coated Claudin18.2-His

Row | EC50 [µg/mL] | Binder
1 | 0.0413 | 231C11E9 (antibody, V domains shown) VH: EVMLVESGGGLVKPGGSLKLSCAASGFTFNNYVMCWVRQTPEKRLEWVATISSGNFYTYYPDSVKGRFTISRDNAKNTLYLQMSSLRSEDTAIYYCASLGRGNALDNWGQGTSVTVSS VL: DIVMTQSPASLTVTAKEKVTMSCRSSQSLLNSGNQKNYLTWYQQKPGQPPKLLIYWASTRESGVPDRFTGSGSGTDFTLTISSVQAEDLAVYYCQNDYSYPFTFGSGTKLEIK
2 | 0.0193 | 242F5H2 (antibody, V domains shown) VH: EVMLVESGGGLVKPGGSLKLSCAASGFTFSSYTVSWVRQTPEKRLEWVATSIVGSTYTYFPDSVKGRFTISRDFAKNTLFLQMSSLRSEDTAMYYCSRLGRGNAMDYWGQGTSVSVSS VL: DIVMTQSPSSLTVTAGEKVTLNCRSSQSLLNSGNQKNYLTWYQQKPGQPPKLLIYWASTRESGVPDRFTGSGSGTDFTLTISSVQADDLAVYYCQNGYSYPFTFGSGTKLEIK
3 | 0.141 | 246B5F2 (antibody, IgM, V domains shown) VH: EVMLVESGGGLMKPGGSLKLSCAASEFTFSNYAMSWVRQTPEKRLEWVATISSGRSSTYYPDSVKGRFTISRDNAKNTLYLQMSSLRSEDTAMYYCAGLGRGNAMEYWGQGTSVTVSS VL: DIVMTQSPSSLTVTAGEKVTLSCKSSQSLLNSGNQKNYLTWYQQKPGQPPKLLIYWASTRESGVPDRFTGSGSGTDFILTINSVQAEDLAVYYCQNAYSYPFTFGSGTKLEIK
4 | 0.0268 | 234A10F7 (antibody, V domains shown) VH: QVQLQQSGAELVKPGASVKLSCKASGYTFTSFGINWLRQRPEQGLEWIGWIFPGDGNSKYNENFKGKATLTTDKSSSTAYMQLTRLTSEDSAVYFCARFYYGNSFAYWGQGTLVTVSA VL: DIVMTQSPSSLTVTTGQKVTMSCKSSQSLLNSGNQKNYLTWYQQKPGQPPKLLIYWAATRESGVPDRFTGSGSGTDFTLTISSVQAEDLAVYYCQNDYFYPFTFGAGTKLELK
5 | 0.0221 | 241H10A1 (antibody, V domains shown) VH: QVQLQQSGAELVKPGASVKLSCKASGYTFTSFGINWLRQRPEQGLEWIGWIFPGDGNSKYNENFKGKATLTTDKSSSTAYMQVTRLTSEDSAVYFCARFYYGNSFANWGQGTLVTVSA VL: DIVMTQSPSSLTVTAGEKVTMSCKSSQSLLNSGNQKNYLTWYQQKPGQPPKLLIYWAATRESGVPDRFTGSGSGTDFTLTISSVQAEDLAVYYCQNDYFYPFTFGGGTKLELK
6 | 0.0145 | 240A8E7 (antibody, V domains shown) VH: QAYLQQSGAELVRSGASVKMSCKASGYTFTNYNIHWVKQTPGQGLEWIGYIYPGNGDNYYNQKFKGKATLTADTSSSTAYMQISSLTSEDSAVYFCARDYYGNSFAYWGQGTLVTVSA VL: DVVMTQSPSSLTVTAGEKVTMNCKSSQSLLNSGNQKNYLTWYQQKPGQPPKMLIYWASTRESGVPDRFTGSGSGTDFTLTISSVQAEDLAIYYCQNDYYYPFTFGAGTKLELK
7 | 0.0394 | 231H4G11 (antibody, V domains shown) VH: QAYLQQSGAELVRSGASVKMSCKASGYTFTSHNIHWVKQTPGQGLEWIGYISPGNGYTNYNQKFRGKATLTADTSSSTAYMQISSLTSEDSAVYFCTRDYYGNSFAYWGQGTLVTVSA VL: DIVMTQSPSSLTEKAGERVSMSCKSSQSLFNSGSQKNYLTWYQQKPGQPPKLLIYWASTRESGVPDRFSGSGSGTDFTLTISSVQAEDLAVYYCQNNYWFPFTFGAGTKLELK
8 | 0.0943 | 233D5E5 (antibody, V domains shown) VH: QAYLQQSGAELVRSGASVKMSCKASGYTFTSHNMHWVKQTPRQGLEWIGYIYPGNGDTNYNQKFKGKATLTADTSSSTAYMQISSLTSEDSAVYFCTRDYYGNSFAYWGQGTLVTVSA VL: DIVMTQSPSSLTEKAGERVSMSCKSSQSLFNSGNQKNYLTWYQQKPGQPPKLLIYWASTRESGVPDRFTGSGSGTDFTLTISSVQAEDLAVYYCQNAYWYPFTFGAGTKLELK
9 | 0.105 | 234E1F12 (antibody, V domains shown) VH: QAYLQQSGAELVRSGASVKMSCKASGYTFTSHNMHWVKQTPRQGLEWIGYIYPGNGDTNYNQKFKGKATLTADTSSSTAYMQISSLTSEDSAVYFCTRDYYGNSFAYWGQGTLVTVSA VL: DIVMTQSPSSLTEKAGERVSMSCKSSQSLFNSGNQKNYLTWYQQKPGQPPKLLIYWASTRESGVPDRFTGSGSGTDFTLTISSVQAEDLAVYYCQNAYWYPFTFGAGTKLELK
10 | 0.0355 | 235A10C9 (antibody, V domains shown) VH: QAYLQQSGAELVRSGASVKMSCKASGYTFASHNMHWVKQTPGQGLEWIGYIYPGNSGTKYNQKFTGKATLTADTSSSTAYMQITSLTSEDSAVYFCARDYYGNSFAYWGQGTLVTVSA VL: DIVMTQSPSSLTEKAGEKVSMRCKSSQSLLNSGNQKNYLTWYQQKPGQPPKLLIYWASTRESGVPDRFTGSGSGTDFTLTISSVQADDLAVYYCQNDYMFPFTFGAGTKLELK
11 | 0.0259 | 232C5E3 (antibody, V domains shown) VH: QAYLQQSGAELVRSGASVKMSCKASGYTFTSHNIHWIKQTPGKGLEWIGYIYPGNGGTNYNQKFKAKATLTADTSSSTAYMQISSLTSEDSAVYFCARDYYGNSFAYWGQGTLVTVSA VL: DIMMTQSPSSLTETAGEKVSMSCKSSQSLLNSGNQKNYLTWYQQKPGQPPKLLIYWASTRESGVPDRFSGSGSGTDFTLTISSVQAEDLAVYYCQNGYRFPFTFGAGTKLELK
12 | 0.0305 | 232D7C8 (antibody, V domains shown) VH: QAYLQQSGAELVRSGASVKMSCKASGYTFTSHNMHWVKQTPGQGLEWIGYIYPGNGGTNYNQKFKGKATLTADTSSSTAYMQISSLTSEDSAVYFCARDYFGNSFAYWGQGTLVTVSA VL: DILMTQSPSSLTATAGEKVSMSCKSSQSLFNSGNQRNYLTWYQQRPGQPPKLLIYWASTRESGVPDRFTGSGSGTDFTLTISSVQAEDLAVYYCQNDYRYPFTFGAGTKLELK
13 | 0.00792 | 240D6F5 (antibody, V domains shown) VH: QAYLQQSGAELVRSGASVKMSCKASGYTFTSHNMHWVKQTPGQGLEWIGYIYPGNGGTNYNQKFKGKATLTADPSSSTAYMQINSLTSEDSAVYFCTRDYYGNSFAYWGQGTLVTVSA VL: DIVMTQSPSSLTEKAGERVSMSCKSSQSLFNSGNQKNYLTWYQQKPGQPPKLLIYWASTRESGVPDRFTGSGSGTDFTLTISSVQAEDLAVYYCQNDYRYPFTFGAGTKLELK
14 | 0.0164 | 242H12D6 (antibody, V domains shown) VH: QAYLQQSGAELVRSGASVKMSCKASGYTFTSHNMHWVKQTPGQGLEWIGYIYPGNGGTNYNQKFKGKATLTADTSSSTAYMQINSLTSEDSAVYFCTRDYYGNSFAYWGQGTLVTVSA VL: DIVMTQSPSSLTEKAGERVSMSCKSSQSLFNSGNQKNYLTWYQQKPGQPPKLLIYWASTRESGVPDRFTGSGSGTDFTLTISSVQAEDLAVYYCQNDYRYPFTFGAGTKLELK
15 | 0.0346 | 243F6D2 (antibody, V domains shown) VH: QAYLQQSGAELVRSGASVKMSCRASGYTFTSHNMHWVKQTPGQGLEWIGYIYPGNGGTYYNQKFKGKATLTADTSSSTAYMQISSLTSEDSAVYFCARDYYGNSFVYWGQGTLVTVSA VL: DVVMTQSPSSLTEKTGEKVSMSCKSSQSLLNSGNQKNYLTWYQQKPGQPPKLLIYWASTRESGVPDRFTGSGSGTDFTLTISSLQTEDLAVYYCQNNYRYPFTFGAGTKLELK
16 | 0.0125 | 243B4F2 (antibody, V domains shown) VH: QAYLQQSGAELVRSGASVKMSCKASGYTFTSHNLHWVKQTPGQGLEWIGYIYPGNGNTNYNQKFKGKATLTADTSSSTAYMQISSLTSEDSAVYFCTRDYYGNSFAYWGQGTLVTVSA VL: DIVMTQSPSSLTEKAGERVSMSCKSSQSLFNSGNQKNYLTWYQQKPGQPPKLLIYWASTRESGVPDRFTGSGSGTDFTLTISSVQAEDLAVYYCQNNYWFPFTFGAGTKLELK
17 | 0.0387 | 234C9G5 (antibody, V domains shown) VH: QAYLQQSGAELVRSGASVKMSCKASGYAFTSHNMHWVKQTPGQGLEWIGYISPGNGYTNYNQKFRGKATLTADTSSSTAYMQIGSLTSEDSAVYFCTRDYYGNSFAYWGQGTLVTVSA VL: DIVMTQSPSSLTEKAGERVSMSCKSSQSLFNSGNQKNYLTWYQQKPGQPPKLLIYWASTRESGVPDRFTGSGSGTDFTLTISSVQAEDLAVYYCQNNYWFPFTFGAGTKLELK
18 | 0.00969 | 248E6A7 (antibody, V domains shown) VH: QAYLQQSGAELVRSGASVKMSCRASGYTFTSHNMHWVKQTPGQGLEWIGYIYPGNGNTYYNQKFKVKATLTADTSSNTAYMQINSLTSEDSAVYFCVRDYYGNSFVYWGQGTLVTVSA VL: DVVMTQSPSSLTEKTGEKVTMTCKSSQSLLNSGNQKNYLAWYQQKPGQPPKLLIYWASTRESGVPDRFIGSGSGTDFTLTISSLQTEDLAVYYCQNNYMYPFTFGAGTKLELK
19 | 0.0193 | 185F2G12 (antibody, V domains shown) VH: QAYLQQSGAELVRSGASVKMSCKASGYTFTSYNMHWVRQTPGQGLEWIGYIYPGNGGTNYSQKFKGKASLTADTSSTTAYMQISSLTSEDSAVYFCATGRGFAYWGQGTLVTVSA VL: DIVMTQSPSSLTVTAGEKVTLSCKSSQSLFNTGNQKNYLTWYQQKPGQPPKLLIFRASTRESGVPDRFTGSGFGTDFTLTISSVQAEDLAVYYCQNDFSYPLTFGAGTKLELK
20 | 0.0509 | 232F1E4 (antibody, V domains shown) VH: QVQLKESGPGLVAPSQSLSITCTVSGFALTTYGVSWVRQPPGKGLEWLGVIWGDGSTHYHSALISRLSIRKDNSKSQVFLKLNSLQTDDTATYYCAKPGRGNAMDYWGQGTSVTVSS VL: DIVMSQSPSSLTVTAGEKVTMSCKSSQSLLNSGNQKNYLTWYQQKPGQSPKLLIYWASTRESGVPDRFTGSGSGTDFTLTISSMQAEDLAVYYCQNDYIYPLTFGAGTMLELK
21 | 0.0109 | 186F7E10 (antibody, V domains shown) VH: EVMLVESGGGLVKPGGSLKLSCAASRFTLNSYAMSWIRQTPEKKLEWVATITSGVSHTYYFDSVKGRFTISRDTAKNTLNLQMNSLRSEDTAVYYCARLYYGNSLDYWGQGTSVTVSS VL: DIVMTQSPSSLTVTAGEKVTVSCKSSQSLLNSGNQKNYLTWYQQKPGQPPKLLIYWASTRESGVPDRFTGSGSGTDFTLTISSVQSEDLAVYYCQNNYIYPLTFGAGTTLELK
22 | 0.0405 | 234B9D4 (antibody, V domains shown) VH: EIQLQQSGPDLMKPGSSVKISCTASGYSFTSYYIHWVKQSHGKTLEWIGYIDPFNGGTRYNQKFEGKAALTVDKSSTTAYMHLTSLTSDDSAVYYCASLRFFTYWGQGTLVTVSA VL: DIVMTQSPSSLTVTAGEKVTMTCKSSQSLLNSGNQENYLTWYQQKPGQPPKLLISRASTRQSGVPDRFTGSGSGTDFTLTISSVQAEDLAVYYCQNDYSYPLTFGAGTKLELK
